Experimental data published in patent US9512428B2, “Method of deriving mature hepatocytes from human embryonic stem cells” (Wisconsin Alumni Research Foundation, priority 2012, dated 2016).
“Also recorded” adds a separate entry of the source.

Columns and labels:
CYP1A2 = CYP1A2 induction by omeprazole in transduced hESC-derived hepatocytes (quantitative PCR); format: in vitro ADME, human
Description: Induction of this enzyme was also measured in HepG2 human hepatocytes and in fresh primary human hepatocytes. Expression was measured by quantitative PCR, and the expression levels are shown as GAPDH normalized gene expression values (RQ values or relative quantity values. Error bars indicate RQ min and RQ max values).
(RQ values or relative quantity values. Error bars indicate RQ min and RQ max values).
Omeprazole and rifampicin (also known as rifampin; Sigma) were added to DMEM at 100 μM and 10 μM respectively for 3 days. The resulting medium was analyzed by mass spectrometry. Metabolites of the tested drugs, omeprazole sulfone (Santa Cruz Biotechnology), 5-hydroxy omeprazole (Cachesyn), and desacetyl rifampicin (Santa Cruz Biotechnology) were dissolved in DMEM to prepare standard curves.

hESC derived hepatocytes [1] = assay: Rifampin metabolism to 25-des acetyl rifampin in hESC derived hepatocytes (LC-MS/MS); conditions: hESC derived hepatocytes co-transduced with let-7c and mir-122, 72 hours incubation
[2] = test system: hES cell-derived fetal hepatocytes; assay: QPCR of liver genes in hES cell-derived fetal hepatocytes after lentiviral transduction of mir-122; format: cell-based, human
Description: We next determined whether forced expression of mir-122 in the hES cell-derived fetal hepatocytes could program these cells to a more mature differentiated state. We expressed mir-122 in the fetal hepatocytes by lentiviral transduction. Using this method, we achieved ˜5% transduction efficiency (see FIG. 2 GFP positive cells).
These GFP positive cells were then FACS sorted, and RNA was isolated for QPCR measurements of functional genes.
H1 hES cells (J. A. Thomson et al., Science (1998) 282: 1145-1147) cultured in E8 medium (Chen et al., 2011 Nature Methods 8(5) 424-9) were differentiated to fetal hepatocytes lacking functional hepatic enzyme activity following a previously published protocol (see J. Cai et al., Hepatology (2007) 45: 1229-1239), with some modifications. Briefly, the hES cells at approximately 50% confluency were treated with 0.5 mg/ml Albumin fraction V (Sigma) and 100 ng/ml Activin A (Sigma) for 3 days. On the second day of treatment, 0.1% Insulin-transferrin-Selenium (Sigma) was added, and on the third day of treatment, 1.0% Insulin-transferrin-Selenium (Sigma) was added. From day four to day eight, the cells were treated with 30 ng/ml FGF4 (R&D Systems) along with 20 ng/ml BMP2. From days nine through thirteen, 20 ng/ml HGF (R&D Systems) were added to the medium, and finally, the cells were treated for five days with 10 ng/ml Oncostatin M (R&D Systems) and 0.1 μM Dexamethasone (Sigma). Throughout differentiation, hepatocyte growth medium (Promocell) was used as a base medium and cells were kept on Matrigel™ coated plates. […] hepatocytes were obtained for comparison studies (Celsis).
Mir-122 was transduced into the hES derived cells having hepatocyte morphology by a lentiviral vector pEZX-MR01 (Genecoepoeia). Approximately ˜5% of cells were transduced, as measured by GFP expression.
In this example, we performed a QRT PCR comparison of the gene expression levels of the mature hepatocytes produced from human embryonic stem cells according to the procedure outlined in Example 1 (ES hepatocyte expressing mir-122), the expression levels for the same proteins in human primary hepatocytes (Human hepatocyte), the expression levels for the same proteins in the fetal hepatocytes before transduction (ES hepatocyte), and the expression levels for the same proteins in HepG2 cells.

[3] = test system: primary human hepatocytes; assay: Functional gene expression over time in primary human hepatocytes transduced with mir-122 (QPCR); format: cell-based
Description: FIGS. 6A through 6E are a bar graphs showing that lentivirus mediated DNA transfer to primary hepatocytes derived directly from liver tissue results in improved hepatic protein expression over time, as compared to control primary hepatocytes. Expression is shown for albumin (FIG. 6A), tyrosine aminotransferase (TAT) (FIG. 6B), and the CYP 450 enzymes CYP1A2 (FIG. 6C), CYP3A4 (FIG. 6D) and CYP7A1 (FIG. 6E). Expression was measured by quantitative PCR, and the reported values were normalized by GAPDH expression (RQ or relative quantity values, error bars representing standard error, RQ min and RQ max). Expression values are shown for each gene at the time the culture was established (0 day) and 9, 13 or 19 days later.
We cultured primary human hepatocytes (both control hepatocytes and hepatocytes into which vectors were transferred to express mir-122). Mir-122 was transduced into these primary hepatocytes using the lentiviral vector PEZX-MR01. GFP expressing cells were FACS sorted before RNA isolation and gene expression measurements using QPCR.

hepatitis B virus (HBV) = assay: HBV infection and replication in transduced hESC-derived hepatocytes (viral genome QPCR); format: cell-based
Description: FIG. 8 is a bar graph showing that HBV infects and replicates in human embryonic stem cell-derived hepatocytes. Number of copies of the HBV genome is reported for human embryonic stem cell-derived hepatocytes transduced with mir-122 infected with HBV (es heps with miRNA), positive control (human heps), and negative controls (hepg2). The copy numbers were calculated by QPCR. QPCR standard curve was prepared by serial dilution of LJ144, a construct that contains the whole viral genome. Both LJ144 and QPCR primers were disclosed by Watanabe et al. (PNAS 2007 104 (24)).
The copy numbers were calculated by QPCR. QPCR standard curve was prepared by serial dilution of LJ144, a construct that contains the whole viral genome. Both LJ144 and QPCR primers were disclosed by Watanabe et al. (PNAS 2007 104 (24)). […]
Infected cells were lysed at 6 days post-infection and treated with micrococcal nuclease. […] QPCR was performed to quantify the viral genomes present in the isolated DNA using the QPCR primers disclosed by Watanabe et al. (PNAS 2007 104 (24)). […]
Infectious HBV virions were concentrated from media of HepAD38 cells (Ladner et al. 1997) by PEG 8000 precipitation followed by centrifugation. […] Viral genome copy numbers were quantified by QPCR using primers previously published (see Watanabe et al. 2007). […]

hESC derived hepatocytes [4] = assay: QPCR of liver genes in hESC derived hepatocytes transduced with let-7c alone or with mir-122; format: cell-based, human; conditions: GAPDH normalized, versus non-transduced hESC derived hepatocytes
Description: (§1) Expression of albumin was also measured in HepG2, a human hepatoma cell line (hepg2). Expression was measured by quantitative PCR. Indicated expression levels (on the Y axis) are GAPDH normalized gene expression values called RQ values (relative quantity values), with HepG2 expression assigned a relative value of 1. Error bars indicate RQ min and RQ max values calculated on 1 standard deviation. All RQ, RQ min and RQ max values were calculated with ViiA7 software on Applied Biosystems QPCR system.
as §1, with “CYP7A1” for “albumin”
as §1, with “CYP3A4” for “albumin”
as §1, with “AFP” for “albumin”
Expression of AFP was also measured in HepG2, a human hepatoma cell line (hepg2). Expression was measured by quantitative PCR.

Q: For `COc1ccc2[nH]c([S+]([O-])Cc3ncc(C)c(OC)c3C)nc2c1` (centres unmarked) [omeprazole], which “induction of CYP1A2 upon drug challenge” value (CYP1A2; hESC-derived hepatocytes transduced with both mir-122 and let-7c, versus non-drug treated (ND) cells) is on record?
A: strongly induced; also recorded: induced the expression

Q: What about the “induction of CYP1A2 upon drug challenge” value (CYP1A2; hESC-derived hepatocytes with let-7c alone, no concurrent mir-122) of the same molecule?
A: did not elicit induction

Q: And the “expression of CYP1A2 upon addition of drug” value (CYP1A2; mir-122 transduced hES cell-derived hepatocytes, 100 μM for 3 days)?
A: substantially up-regulated

Q: With `CO[C@H]1/C=C/O[C@@]2(C)Oc3c(C)c(O)c4c(O)c(c(/C=N/N5CCN(C)CC5)c(O)c4c3C2=O)NC(=O)/C(C)=C\C=C\[C@H](C)[C@H](O)[C@@H](C)[C@@H](O)[C@@H](C)[C@H](OC(C)=O)[C@@H]1C` [rifampicin] as the molecule, how does the “efficiency of metabolism to 25-des acetyl rifampin” value (hESC derived hepatocytes [1]) read?
A: comparable to primary human hepatocytes

B1: mir-122: human microRNA mir-122 (pre-miRNA SEQ ID NO:1, mature SEQ ID NO:2); coding DNA transferred by lentiviral vector (nucleic acid, listed as Homo sapiens)
chain 1: CCUUAGCAGAGCUGUGGAGUGUGACAAUGGUGUUUGUGUCUAAACUAUCAAACGCCAUUAUCACACUAAAUAGCUACUGCUAGGC
chain 2: UGGAGUGUGACAAUGGUGUUUG
Q: Which results are given for B1?
A: expression of functional genes (quantitative PCR) ([2]; GFP positive FACS sorted hES cell-derived hepatocytes expressing miR-122): significant up-regulation; expression of functional genes (alb, tat, CYP1A2, CYP7A1, CYP3A4, aat) compared with primary hepatocytes ([2]; QRT PCR, transduced mature hepatocytes versus human primary hepatocytes): equal or greater expression than in primary hepatocytes; transduction efficiency ([2]; lentiviral transduction, GFP positive cells): ~5%; alpha-feto protein expression ([2]; mir-122 expressing hESC-derived hepatocytes): not down-regulated; CYP gene expression compared with fresh hepatocytes (day 0) ([3]; mir-122 expressing primary hepatocytes in culture): equal or greater amount; mRNA levels of functional genes that decreased in control culture ([3]; primary hepatocytes cultured 9 days or more, overexpressing mir-122): regained their expression; HBV genomes present per well (hepatitis B virus (HBV); mir-122 transduced hESC-derived hepatocytes, 6 days post-infection): presence of HBV genomes

B2: let-7c: human microRNA let-7c (pre-miRNA SEQ ID NO:3, mature SEQ ID NO:4); coding DNA transferred by lentiviral vector pEZX-MR03 (nucleic acid, listed as Homo sapiens)
chain 1: GCAUCCGGGUUGAGGUAGUAGGUUGUAUGGUUUAGAGUUACACCCUGGGAGUUAACUGUACAACCUUCUAGCUUUCCUUGGAGC
chain 2: UGAGGUAGUAGGUUGUAUGGUU
Q: What does the source list for B2?
A: productive infection by HBV (relative number of copies of the HBV genome) (hepatitis B virus (HBV); transduced versus non-transduced hESC-derived hepatocytes, seventh day after infection): significantly down-regulated; AFP (alpha-feto protein) expression (hESC derived hepatocytes [4]): down-regulated; CYP1A2 expression (hESC derived hepatocytes [4]): up-regulated; CYP3A4 expression (hESC derived hepatocytes [4]): up-regulated; CYP7A1 expression (hESC derived hepatocytes [4]): up-regulated; albumin expression (hESC derived hepatocytes [4]): up-regulated
